A word on the Kd: it is the free concentration of one partner at which half of the binding sites on the other are occupied at equilibrium, for simple one-to-one binding.

The values below come from patent publication US20230091315A1 (CISBIO BIOASSAYS, published 2023).

Experiment [1] concerns the target T1, human recombinant G-protein alphai1 fused at the N-terminal with a Tag Twin-Strep-tag (TST-G protein alphai1) (human, UniProt B2RSH2 1-354 (mouse entry)).
T1 construct: Purified protein made in Sf9 insect cells; also called G-protein αi1; protein Gαi1
The experiment in a line: HTRF competition on Gαi1 + GTPgS: unlabeled antibody varied against DSV36S-d2 (10 nM), detection with anti-Twin-Strep-tag-Lumi4 Tb. Here is the method:
(§1) These two reagents were prepared in one and the same solution and were preincubated for 30 minutes at room temperature before being distributed in the wells. The cold antibodies DSV36S, DSV38S, DSV26S, DSV3S, and DSV39S were prepared 4× for final concentrations in the wells between 0.001 and 1 μM. The antibody DSV36S-d2 was prepared 4× for a final concentration of 10 nM.
(§2) 1) 10 μl of the preincubated mixture of G-protein αi1 +GTPgS was put in each well, 2) 5 μl of the unlabeled antibodies DSV36S, DSV38S, DSV26S, DSV3S, and DSV39S was added to each well, 3) The plates were incubated for 30 minutes at room temperature, 4) 5 μl of the anti Twin-Strep-tag-Lumi4 Tb antibody and of the antibody DSV36S-d2 were added to each well.
In general terms: Time-resolved FRET reads energy transfer from a long-lived donor to a nearby acceptor.

The target of experiment [2] is T1, human recombinant G-protein alphai1 …. Put plainly: HTRF (TR-FRET) titration of antibody-d2 on 2.5 nM Twin-Strep-tagged Gαi1 with anti-Twin-Strep-tag-Lumi4 Tb; condition: GDP 10 µM. The method, then:
(§3) These two reagents were prepared in one and the same solution and were preincubated for 30 minutes at room temperature before being distributed in the wells. The antibodies DSV36S-d2, DSV38S-d2 and SC13533-d2 were prepared 4× for final concentrations in the wells between 0.01 and 10 nM depending on the antibodies.
(§4) Moreover, the antibody titration curves obtained make it possible to calculate the affinity (Kd) of these different antibodies for the G-protein αi1. This was carried out using the GraphPad Prism software by applying a “one site specific binding” model to the HTRF data.

Experiment [3] has the same target. Put plainly: HTRF competition on Gαi1 + GTPgS: unlabeled antibody varied against 36S-d2 (DSV36S-d2, 10 nM), detection with anti-Twin-Strep-tag-Lumi4 Tb. Here is the method: as §1, §2
Experiment [4] has the same target. Put plainly: HTRF (TR-FRET) titration of antibody-d2 on 2.5 nM Twin-Strep-tagged Gαi1 with anti-Twin-Strep-tag-Lumi4 Tb; condition: Buffer only. Here is the method: as §3, §4
The target is the same in experiment [5]. Put plainly: HTRF (TR-FRET) titration of antibody-d2 on 2.5 nM Twin-Strep-tagged Gαi1 with anti-Twin-Strep-tag-Lumi4 Tb; condition: GTP 10 µM as printed (the protocol names GTPgS). The method, then:
as §3, §4

T1 sequence (B2RSH2 whole entry, the tested form may be a part): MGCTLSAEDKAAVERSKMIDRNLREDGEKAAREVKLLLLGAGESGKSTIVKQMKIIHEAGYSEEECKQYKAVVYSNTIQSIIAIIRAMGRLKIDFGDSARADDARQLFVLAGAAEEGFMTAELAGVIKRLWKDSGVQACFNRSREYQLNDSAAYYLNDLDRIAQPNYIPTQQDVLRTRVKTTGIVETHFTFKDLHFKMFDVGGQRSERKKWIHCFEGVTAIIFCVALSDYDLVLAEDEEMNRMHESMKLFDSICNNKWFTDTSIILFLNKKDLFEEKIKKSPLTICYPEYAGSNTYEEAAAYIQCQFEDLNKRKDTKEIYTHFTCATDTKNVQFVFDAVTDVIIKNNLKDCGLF

B1: antibody DSV36S (antibody, V domains shown)
VH: EVQLQQSGAELVRPGALVKLSCKASGFNIKDYYMHWVKQRPEQGLEWIGWIDPENGNTIYDPKFQGKASITADTSSNTAYLQLSSLTSEDTAVYYCTRGGGYYSDWYFDVWGAGTTVTVSS
VL: QIVLTQSPAIMSASPGEKVTMTCSASSSVSYMHWYQQKSGTSPKRWIYDTSKLASGVPARFSGSGSGTSYSLTISSMEAEDAATYYCQQWSSNPPITFGAGTKLELK
notes: Used unlabeled or labeled with d2 (acceptor) or Lumi4Tb (donor); also called DSV36S-d2; DSV36S-Lumi4Tb
As for B1, the “IC50 (read off the curve)” value in experiment [1] and in experiment [3] was roughly 0.5 nM throughout. Besides, the Kd in experiment [2] was found to be 0.48 nM; in experiment [4], 0.82 nM; in experiment [5], 0.31 nM.
